Source: patent US20150306011

Target: histone H3 (acid extracted histones from untreated HeLa cells), P68431

B1: PCAF histone acetylase enzyme (protein)
chain: MLEEEVYSQNSPIWDQDFLSASSRTSQLGIQTVINPPPVAGTISYNSTSSSLEQPNAGSSSPACKASSGLEANPGEKRKMTDSHVLEEAKKPRVMGDIPMELINEVMSTITDPAAMLGPETNFLSAHSARDEAARLEERRGVIEFHVVGNSLNQKPNKKILMWLVGLQNVFSHQLPRMPKEYITRLVFDPKHKTLALIKDGRVIGGICFRMFPSQGFTEIVFCAVTSNEQVKGYGTHLMNHLKEYHIKHDILNFLTYADEYAIGYFKKQGFSKEIKIPKTKYVGYIKDYEGATLMGCELNPRIPYTE
  histone H3 acetylation in PCAF HAT reaction (immunoblot, diacetylated H3 Ac-Lys9+Ac-Lys14): 35-fold increase
